Source: the DeepSol protein solubility set

experiment: soluble on expression in E. coli; label from the status in PepcDB or PDB records

Sequence	soluble on expression in E. coli
MAHHHHHHMRRTVVQRVAPWVPPPRHDIKVTMPPPPGGEVGGRFGVSQGYSDRLARTPYWKRMALSTYKLRMMENATRYPMSEHRPGEYDIRYLPTPYPCTIRNRPLLEVGEPRQIPSIRIPVIFLVNLFDEAKGCWFGRRYETVYVERQFMREELMPQRYAIYATPEAYKLLGLPVVNHHTHEEIPKTPREYEKLLERQRYDEERWKYTIEYLFRKYEDGPPELLDRPEDGWDGSEEIALSSVAGAGRDGVVSQRKGPVKQRKARKIKLF	not soluble
MAHHHHHHMRRVRLSPPLLRFPGSLFPKKNLFSKAIPLAIQTCRLFVSYSEPSYYYYYYYHNSCMCEVIRSARDSAERMGFGEGWGVCGASTRRQHRVGLFSSGSSSEHLPCMKGWSGRKDVSLIYAYHTCLLHFLLLHTCV	not soluble
MAHHHHHHMRRYVKPSNIVGANISHPVDIFKMTVEHRVQCGSCHKVRYTRETDCCLSLPIPLDPNLKNSDGNPKQTEEEIFASRPHISLDACLGSLMQATDIDCRCSACGIPVTYCKTTRLRTFPDVLPIFLRRAQFDMETMSVRKLDVFVDVPLELDLEFLRGKGLQSDEVSMPEAREDLPHKPTSSSMKTVDEEALAMLLSMGIEETVARYALLQTGMNAERAVDYVFSRENIAEEAGLAEISTTASESQPVHVLDGPAKYRLHAMISHVGASAKTGHYVCHICDAQTGKWLLFNDEKVAESLNPPFSMAFLYFYKRVGK	soluble
MAHHHHHHMRTPVVGAGVAPLEPAPLEASSAAGEDGGEAGVGDEGTDRERFSKMWMYCLQQMQGHEVGMLMDMMPPDIQELYSDKLSDEYLLDEHDNMDKGVHALRAAQKMVEELTSEQLFHIEEFLAGTDAFNAEANRCHGKAHHPRGDGDNLEEEEEAGGDDDEDLFMHRDEGMGSDEEEWLLEQMIAAGDKTSAAAK	not soluble
MAHHHHHHMRTSAAVLSLFRGQRRLSCTMTAPLATRRFCRSTGDGLQKDWRPLSTTPHQPGPDTPASPSSSKSSANLDACEGALRAAPEGPASSKRGSSFASLALQRGSGEKANRMDRTAGLYKHTIVTETDKAPTGVARSATASSVSTGAGLTAERKKYATIPLRHCGTRAEPGNGSRSASSPPSASNSKREMTAQTEAPKTIKTAARPQDGPMVPDYGPLRATGLWSVEEVLDESKKTVDFRRIDDVESEIIEDHTNAEEALVPYAEEEAWKHKLMFEYKFKKTPKHLTWKEMGEEIECMDCVIELDEHRPEELFTIFFYFTDKKTGTRDLVWSARNDVSYSEGFTDLLAAIGACLGRSDVHRTIRFDDGVGCTRDLTFRKRSRYTSDVYVAFRPPEKYDKFQRKEEKDEYEASMEREGMSTWGYHPSLMDPEFSELDFKDPEGTYEVAISAHGFSFVVLRAIGRLLARPMKDFYRPSQLMRTAKVRTEDEIGFTHALKGWLGVDEQLYPHYTPIEALQDHWLGKDAPFSLCAIVNKLREMNYLKKENPEFQSWLSVRSHDTHLAIRNMGVKLLGVGASTLFVPVSHNATVNRLLPKPQQRRLESRFSLNAVLGLPDETRKLKDFKQITGHDRITDVPTSSTRETATIASPAQDEASVKNSPT	not soluble
MAHHHHHHMSEDESNSVSCSLSLESDGYSDEEYDTNLNKLIENESLNWIFVGGKGGVGKTTTSCSIAVQLSKRRESVLLLSTDPAHNTSDAFNQKFTNQPTLINSFDNLYCMEIDTNYSENTAFKLNKKEMFDNILPELLHSFPGIDEALCFAELMQSIKNMKYSVIVFDTAPTGHTLRLLAFPDLLKKALGYLINIREKLKGTLNVLKNFTNNEMEFDSLYEKINHLNAMSSSIQANFQNPMKTTFVCVCIPEFLSVYETERLIQELTKKNISCYNIVVNQVVFPLDSPNVNLENCKNLLSQIKNEQIQSYFNDLISKTEELEDVYISRRKLQSKYLTQIKNLYSNDFHIVCMPQLKNEIRGLNNISSFSEMLLQSKDIPIYKDNL	not soluble
MAHHHHHHMSGRPEEGLYGNVESQSSNVSQGGRRRTRSEFEGDTDHSSATRIRLEGMYRPQWTMSSTVKDILLEGSTLRTDMKLNEFIRSNLDEEWVVERNGNVIMEAFVQEPDAYVQDQELLRRIINLPAYQALEERKILLEATYKLHHEGVYFLRQWGEHEGKDTVSSHARGKLNGVLTGIEIEEKERREAEEREKARREEEARRDAEEEKARREEQINFNLTLSIKDAIFQGRARVYKMKLNRFLKMELDGRGVADTNRRVLLKEFFKDPTRYVRDAGVLNEIQASDAYLMAKRAVREEMDMEEDIRKLQYKHLRTLLGWSIASAEIRASVREITKGFLDAVLEELRKPTTTIAR	not soluble
MAHHHHHHMSIAASSARKDGPHHPSSGLTGKETLQDARKMEYRASTLEAGGNDMECLQLMETALQIRCKEYGTGSSSPELLKEACDAAERVVMKCNVLGVKLFKEGKYDVATPLFGYAMEMTGEGSFPLRKDDERRRRLRGVTLNNHGCMERHRGHFSTALDYMQQSMQCTGQQSPVAFLNISAVQVQLRLCEEAAHSAVCAIQSLGPNPEDPSLLAVAHHNLAMALELIDPPRAHEEYRLALGLAQNTISRRSEVTRTIESNMQRFVMVLHECRPGNSALTGTNSPRSSCGHTLFVSPRSCSRERSPSGRDAASRTHRVDIFPHPFAVSAKETVAKRSISRPARADAGHPPKRLTSLSPMN	not soluble
MAHHHHHHMSKKNKSFYENDGSGRDTFVNYAGAYWMNPLPAGTFFKSRGHLTQSSVPTENGTSLVMDDSTPYPGRTLFGKSRYGTTILAAGQVATLDAPADSQSGHSAGMGSTSRSTANPLAGTDADAQEFDGEATALEHISFDVSNPERRLRQPGHSTTGLEGTGGGSTYNGVKEPWTAPNAVDSTLLRLAPAYESTCHYHLRTGLFYTEDAAPPHEMTLPDKGVTWGRSRYY	soluble
MAHHHHHHMSLMDCKYHKHHLYADKFWWSPSPETNHMRGDAEFKWKGNELIAYGDYNAHMQHPANFVTSSSSGSSGSGAATSKSAAAAAGSKKGASARPWFRRTVVVRKSQASDTKPLSTASKIAAAGTSK	not soluble
MAHHHHHHMSLPIIRLRTVNSNHATAAYDPVTASCTLYGFLRSVPSRFECDMAMSDFKRGVQAAQGQKCLAKNNANMLNRVFSSVQDRLLRELPKIIPQLARNSSTWRRLLSGAESTSSMSSTPTATRLQDNARSLHNEESTQPSIPSTPLPSAGTGENGNKGNHKNGDHHSSAEEILVEETVSTTSTRFKSPYEQIPPPIHLTASEHKESRATGGMQGEAGERKDASTVVEHRGKGNNLPGKGYRPHPLLLAILERVRSSCSAEENESDREEREFTTIMESREKALRTKLSSAYSMIPPEEKNFKGFLREMEARVAVAQKLFEVQKFEETTIRTTECALKIEVATMRALLHQIVDAVAEAEERHEREGPRSPYYAEECHVMAAIQQALDDLAS	not soluble
MAHHHHHHMSMKKKMTKPFRTVVHLPVEEARGAIVRMIRRHNAVVIVGETGSGKTTQIPQYVWDDLVSREPPEQQGIVGCTQPRRVAAVSIARHVAKQRGGSVGAEVAYAVRFDDTCSRQTKIKYMTDGILLREIQTDPDLSHYRCLLLDEAHERTLHGDVLFGLLKDIVRRRKKTLTIVVMSATLNAEHFSKFWWNAPIGVVHGRLYPVTIFHTVEPQADYVEAAVSTLLQIHEKEEPGDVLCFLTGQEEIEDAKRILERRMKVMPSTLQEFMILTLYSAMPYEQQLRVFEPPLPGKRRIILSTNIAETSITVEGIRYVVDSGVVKAKFFSSKSGMEVLSEVDVSKAQATQRAGRAGRMTAGKCFRLYTAQAFESLAENTVPEIQRSSLISVVLEMKSLRIDRIMDFEFMDAPNPKAVVRAEETLMLLGALDRQGHITRLGQRLIDFPIEPMAAIVLLAGKALGVERDVTIAISMTMTENLFFTSREAKDGADRCKAAFAKSAGDHATLLGIYYAYKRVPKDQRKMWCESNAVNPSQMLKAEDVMTQLGAILNEHSDEELLSTMVRRSPNLAGNGAALHRKRRRDSEKDASGDDETSELLKGQTSGMVKLRDFELIRRALCYGFSLNAAFYNAKIGNYQTVVGQQVVHLHPSSVLFYQRKKPALVVFNSVVRTTRRYMKDVSVVQEEWLRDAASFLRPVA	not soluble
MAHHHHHHMSQLYRGRSYQNILRKLPRNLVVFDGHCLMCQARVRHVLERNFSYFSFIRIMQGVDPVKLEANKMLFCSFDSVEWREVRRNFPHLLNDADGVVLIEKVPSKTASFLSRVRQGQKQRRQQGRTGGMNSSEEKRGLKNFFQTNNFSFPLASSSVTTPRGLAGGFDGVEEDVDIVVSVKYEAVCRIGMKLDRWLLRTLFRCLYYMLPRWMGDRWYDYILRRRQLWGTSEEDAVRYPKRVPGLKERTWKL	not soluble
MAHHHHHHMSSAFLAQLPFVGSSSTLGWQHDDVARSYMEHVLHRARVLLPRRGWRIGLIKEFYPRGATLLGLNVNAGSEVCIRFRVPGKKNEFLPFHEVLCTALHEFTHCVHSRHDRAFWNLYYDLVKECEALEITMIQQGMRLYPAISSTPMSCTGTASQQSRSGREGRTAATASSARGGGRRLGNGGARGGGRGAGGGMSTGSRHVAQTVIKAGRAVSSSSSSPPSSAAFPGEGRRLGGGGFRQYDAPIGFTPTRDALRRILAGAAERRLARTPPLAATVTLGSHPLALSLHNTTFPQRDEGQSEVDDDDAPDCVPHSLSGHEDGGGWNCPRCGFRNDDNVVGSCAFCADCDDEDEGEATWRKRPRLDSDHSPLETPTIVVSLATASKTAPTQQLQQQQLECTAEEHYIVVSDEDDS	soluble
MAHHHHHHMSTSTTHVQKETILSLNYYEIFSLDPSARDVDFGSVHRAYRRFALLFHPDKDPSPAARAAFERVKLAAETLTDPQMRREYDEELLQKLQRSTGTGATSAWQRQQRDVMEEEALAADMILRQKEAATAAKAAAKREEELEKEAAAKQMLHELTNALTTPFKRMEEELVHEWEIDEDLLSMKEKEVESLLQKLREYNEGQGRHGRSVDAHTCGTKRRRSEEETASKV	soluble
MAHHHHHHMSVRSGQFNYDAVARESPVGFTKITEGTTAVLEPPPKKKTCTSSAAPAPASNLSDEEADNQLVDQAVFYNPAQVVNRDLSISVIEVFSRLRLTEPRRRGGTNEGITILEALSATGLRAIRYYKEITNVRYIIANDMDADAVDCIVRNCAYNGVPVQYPTLMANMPAAAIELYAGEAEAEKGESATGASPRVGVRAGGAILPNLDDANDLMFRLAMNSNAHPGKRVCLVDAPAETSATASLRPLLQQELMDVVDLDPYGSASPFLDGAFRCIKEGGLMLVTSTDSAILCGNFADTAHAKYSSMPYKAAHCHEAAVRTLLACVERVANRHQKFIVPLLSLHIDFYVRCFFRVYKQPAETKLSACKLGYQLQCSSCSAFWVRPMATARQPRPSRQERRRQRRALAGRVNSDADEAEEEGKTAEGAAEASRAHARPRRLSKRVRDGSDDDEAVAHDVDGVRTEVYPASPSRHSHPKITPLTLQQMPSAASATSTTAATACPVCGSSIVLSGPLYAAPTQNCEFLQQLLALLHERASEGRLNAEARITGLVRIALEELPDCPLFYLLPDVASYVRVRCPPTPCIVGALARLGYRCSQVHCAAAGLKTDCPPEVLFRVMLQWKTVQDTLDPVGEATIEDGADKSKKKAPAASTAPRSLLVTPLAEADFTYDKAHDFRGRVTGVAKFVPNASGWGPRRRHRGAAAVPEAVECGNGEDNDGGSGEA	not soluble
MAHHHHHHMSVSRFRHSTGHVAKPQRHLLNVTSSTALWDGSNTISCNDKFVAVPWQTFGGTAVFKHDTFGRLAPNPPLVLGQKGQIIDVKFDPFNDQKLFTASEDGSIFGWGIPAEGLQSNILSPLVELKGHNKKCGIISFHPSANGVLASAGVDRVIKVWDVERGTAVNTISSLSDYATGLEWNLRGSLFCVASRDKTLRVIDPRDCTVVSSVESHASARSQRCIWCKRKDTIMTLGCSKSQQRQIKLWDTRKMESPYSVTELDQSSAAFIPMYDEDLNLLILGSKGENNVKCFELMNEGLTFSYEVNSNDPMKGLCMMPKWSLDVKKCEFGRLYQLTYHSLFTIEMLLPRKQSCTEFQGDVFPSTFADHSAMSADEFFRGANADPREYDLSGMFDGHSPRLMGGSTPSPEKLPVAVQAAKPLMEAPKGETTTGREKSSVSVPESSEATSAPSDDKTEKHADPCADMTQRDILDKQRRLQELSEKVRTCHHEISALRKALHEKEAEMLQVLEDIQSI	not soluble
